{
  "source": "the DeepSol protein solubility set",
  "data": [
    {"assay": "soluble on expression in E. coli; label from the status in PepcDB or PDB records", "values": [
      {"sequence": "MSLKRFIPAWYSRNRWWESTSRPFYLKKQYTDFDDMISLMTMHSSNNVDYQLIVLSFSPYLRTFLHRYDLYESHYWSVFDEIQGIGHQTPQAIDYRDLSWPEGTEFIFTPFQIQAITGDNTFSKIHFSQEGYLMWVEDYKYSTIQRRFVFDDRGFISAVRTYTPDGDNNKKHYFSKDGEEIFVEDLNVNTVTINKNFQSKFKKVTYSSMAELIEEKFQSYVERELNEDDSVIVASDERHNSMMARTIDAPSLCFSIFTERNKVVTQDLYDSISRAYYCLVDTQANQNMIEHYAGLNMNNFNLLRVTPFDAQSLPNQSSQLYDTYIGLWIDGLDEIEIREIVNSLFQYIQHKDGYKLKILTKSRDNLTENLIDEVAHLNDLYHQEKKEISDVIEDVIQNKKETIIDIETVPFEEDLVSVISKLRVVVDLSLEPKLFLQICCIGAGIPQINKKRTDYVKHMHNGYIIDDISQTVESLDYFLAHLKNWNYSYAYSMRLTDDFSSINIIHQINQLFKGDVSSGTEGHHHHHH", "soluble on expression in E. coli": "soluble"},
      {"sequence": "MSLKRTEISSLGEFGLIRHLTDCVRLKNPGTLKGIGDDAAVISFDEGMKALVTTDMLLEGIHFDLTYTPLKHLGYKSAIVNFSDIYAMNGTPRQLTVSIGVSARFSVEDIEQIYQGILTACDAYGVDLVGGDTSASLTGLCLSLTCIGEAREEEIVYRSGAKPTDLICVSGDLGAAYMGLQLLEREKAVYQGEKDFAPDFAGHEYILERQLKPEARKDIVEELRSAGIKPTAMMDISDGLSSELLHIAHAGKVGVRIYDDKLPIDYQTAAMAEEFNMNLSTAALNGGEDYELLFTVPLTRLDDIQRIEGIHLIGHITEEADGHLLVARDGTEITLVAQGWNAAKALNGEGHHHHHH", "soluble on expression in E. coli": "soluble"},
      {"sequence": "MSLKSAKDVQTITKITIDFGGEEIFLDFDEVTKHYLNQPLSAKTVFALTKELTQVLYNAGYVTSAIGLKSSKIKNGEVEFVVLWGKVNDILVEEQQASLFKDKAMLFVLPNLKGKVLRIYDVDQLIEILNTGNKTAKVNVIAANEKSMSNLSIERHRTSYPQVSLSLNNSGEGSNAEGRNQATLSISWSDLLGTNDRWSFSTGYRIYKDRQANRQQNYSLSYTQPFSFSTLDIKLSYSGYKKQLRGIHTHGSSGETKQASFKLSHTLLRNKDMILSLYGELEFKRRLSYFGDIRIGKYHNNKLNIGLSYVTNLGHGKLYSDLSYSNGLRWFNANHSAYNSHRDKTLRLVSGSINWQRPFVFFNRGMSYQFRLGAQYGFDSLYGENQFSIGDEYTVRGFKGGAGSGDRGFYISQTVTIPFYPQKSYLSYINPFLGIDIGKVHAKRPHHVVDTFAGFAFGVKAQIKSLALSLTYAKPINGVGTFEESNKKSVFYFTGSVSFEGHHHHHH", "soluble on expression in E. coli": "not soluble"},
      {"sequence": "MSLKTIHITHPHHLIKEEQAKSVMALGYFDGVHLGHQKVIGTAKQIAEEKGLTLAVMTFHPHPSHVLGRDKEPKDLITPLEDKINQIEQLGTEVLYVVKFNEVFASLSPKQFIDQYIIGLNVQHAVAGFDFTYGKYGKGTMKTMPDDLDGKAGCTMVEKLTEQDKKISSSYIRTALQNGDVELANVLLGQPYFIKGIVIHGDKRGRTIGFPTANVGLNNSYIVPPTGVYAVKAEVNGEVYNGVCNIGYKPTFYEKRPEQPSIEVNLFDFNQEVYGAAIKIEWYKRIRSERKFNGIKELTEQIEKDKQEAIRYFSNLRKEGGSHHHHHH", "soluble on expression in E. coli": "soluble"},
      {"sequence": "MSLKTLENHNRIKVTVNGREIEVYDNLTILQALLQEDIHIPHLCYDIRLERSNGNCGLCVVTLISPDGERDVKACQTPIKEGMVICTNTPKLENYRKIRLEQLLSDHNADCVAPCVMTCPANIDIQSYLRHVGNGDFEAAIRVIKERNPFPIVCGRVCPHTCESQCRRNLVDAPVAINYVKRFAADWDMARPEPWTPEKKPPTGKKIAIVGAGPSGLSAAYYSAIKGHDVTVFERQPHPGGMMRYGIPEYRLPKAILDKEIEMIKKLGVKIMTEKALGIHIRLEDLSKDFDAVYLAIGSWQATPMHIEGEKLDGVWAGINYLEQVAKNVDIPLGDNVVVIGGGNTAIDCARTALRKGAKSVKLVYRCTREEMPAAPYEVEEAIHEGVEMIFLMAPTKIIVKDGKKKLVCIRMQLGEPDRSGRRRPVPIEGSEVEIDADTIIGAIGQSTNTQFLYNDLPVKLNKWGDIEVNGKTLQTSEYNIFAGGDCVTGPATVIEGHHHHHH", "soluble on expression in E. coli": "soluble"},
      {"sequence": "MSLKTWFITGTSSGFGKELATIVARQSDTQLIAAARHTDDLAYLDVFDATRIEKVSIDVTNESQIKTGVAQAIQRFGTIDVLVNNAGLGYFSTIEESDMAKVRYMFEVNVMGLANVTRTVLPTMRAHHAGIIINLSSALALTTLPTMGFYSATKYAVEGYSDTLRQEVKDLGIQIMTVEPSGARTQWSGRSSQKMVPTIADYAAFSDAITTVSDSVTQAPGNPHRIAQVMFDQANLAEVPAHLPLGEFAYQGGLANLQSIVSEIKSREDLSLSTDEGHHHHHH", "soluble on expression in E. coli": "not soluble"},
      {"sequence": "MSLKVLAITGYKPFELGIFKQDDKALYYIKKAIKNRLIAFLDEGLEWILISGQLGVELWAAEAAYDLQEEYPDLKVAVITPFYEQEKNWKEPNKEQYEAVLAQADYEASLTHRPYESPLQFKQKNQFFIDKSDGLLLLYDPEKEGSPKYMLGTAEKRREQDGYPIYFITMDDLRVTVEEDSYEGHHHHHH", "soluble on expression in E. coli": "soluble"},
      {"sequence": "MSLKYDWILFDADETLFHFDAFKGMQLMFARKGVEFTEQDFHQYQEVNKPLWVDYQNGDITAAQLKHTRFAGWAEKLNTTTDELNSAFLQAMADICTLLPGAMELMQALQGKARLGIITNGFTELQDVRLAKTGMTDFFDQIVISEEVGIAKPDAGIFAHALERMGNPTKSRVLMVGDNPHSDILGGLNFGIETCWLNVHQHPKPDGITPHYEVTSLHELREILLAEGHHHHHH", "soluble on expression in E. coli": "soluble"},
      {"sequence": "MSLKYVDEFREPEKAEALCREITKLSHQLEKPIKIMEVCGGHTHSIFKYGIEEILPQTIELIHGPGCPVCVMPKGRLDDAIAISQNHNVIFATFGDAMRVPGSKTSLLQARAQGADIRMVYSPLDSLQIAKDHPDREVVFFALGFETTAPSTGFTIVQAAAEEIHNFSMFSNHVLVIPALKALLDNPDLQLDGFVGPGHVSMVIGSDPYQFISQQYNKPIVVSGFEPLDILQSIWMLLQQIVENRCEVENQYNRIVQKSGNTVALQAINKVFAVRDSFDWRGLGDIPYSGLKIKPEYAQFDAELKFTIPNLKVADHKACKCGEILKGVLKPWECKVFGTACTPETPIGTCMVSSEGACAAYYKYGRLSTIAKRTITQKPKITQEPLPACGFSLDEGHHHHHH", "soluble on expression in E. coli": "not soluble"},
      {"sequence": "MSLLACCAIYSPVRCAFPYTETERRFTCKRRIFRIILTLCGRENMKIRALLVAMSVATVLTGCQNMDSNGLLSSGAEAFQAYSLSDAQVKTLSDQACQEMDSKATIAPANSEYAKRLTTIANALGNNINGQPVNYKVYMAKDVNAFAMANGCIRVYSGLMDMMTDNEVEAVIGHEMGHVALGHVKKGMQVALGTNAVRVAAASAGGIVGSLSQSQLGNLGEKLVNSQFSQRQEAEADDYSYDLLRQRGISPAGLATSFEKLAKLEEGRQSSMFDDHPASAERAQHIRDRMSADGIKEGGSHHHHHH", "soluble on expression in E. coli": "soluble"},
      {"sequence": "MSLLGTGYLPDGTHMPGANPNLNIAAFLKENHIDLHTTVYPGGGLDPYTSVEFLNIVSKHCKTVFSNANEVLNTIPNSIYVPGIINTEFYHYNQKVSTKPIQMIFAAHNAERKGFPLLAQAFNKLDDQFHLHIVGNWENSLHLLTNNNYTFWGMLDLEKLKQLYEQSHVFISCSTKDKFAIDGFPTTAAADAMATGCILVSTNHRNDNRILKPGEDYLKIEADSNSILSNLFWIKMNFEKALEIGKSGAIKMDKYFNYKTNVNFKLSHIF", "soluble on expression in E. coli": "not soluble"},
      {"sequence": "MSLLIRELETNDLDNFPEIDDSFIVNARLMLSLSKVNRRIEYTVEDVPSYEKSYLQNDNEELVYNEYINKPNQIIYIALLHNQIIGFIVLKKNWNNYAYIEDITVDKKYRTLGVGKRLIAQAKQWAKEGNMPGIMLETQNNNVAACKFYEKCGFVIGGFDFLVYKGLNMTSDEVAIYWYLHFDS", "soluble on expression in E. coli": "not soluble"},
      {"sequence": "MSLLKLFDAHFHIIDYRFPLIANQSYLPPEFTVEDYLQRAKPLNICGGAVVSGSFQAFDQTYLLTALSVLGPNFVGVTQLPATVSDEEIIQLNQHGIRAVRFNLKRGGSESIHQLKYFAHRIYEMVRWHVEIYVDSKELGDLTNLLLELPAVSIDHLGLSQSGFSELLHLVEHGIKIKASGFGRVDFDVKKALQTIAQISPDALLFGTDLPSTRAPLPFLDSDIQLIQDLFDEELTEKILYRNACNFYSKNEGHHHHHH", "soluble on expression in E. coli": "soluble"}
    ]}
  ]
}
